In PMC5358783, “Structural insights into the regulation of Bacillus subtilis SigW activity by anti-sigma RsiW” (PLoS ONE, 2017):

Molecular target: T1, cytoplasmic domain of Bacillus subtilis anti-sigma RsiW (residues 1-80), reduced, zinc-bound (B. subtilis 168 strain, UniProt Q45588 1-80)
T1 construct: RsiW, anti-sigma-W factor of Bacillus subtilis 168, cytoplasmic domain, residues 1-80; Coordinates one zinc ion through C3, H30, C34 and C37 (CHCC motif); The Hisx6-thioredoxin tag was removed with TEV protease after the first IMAC step; also called RsiW_(cyto); RsiWcyto; not shown: His6, N-terminal, cleaved; thioredoxin, N-terminal, cleaved
T1 sequence (looked up): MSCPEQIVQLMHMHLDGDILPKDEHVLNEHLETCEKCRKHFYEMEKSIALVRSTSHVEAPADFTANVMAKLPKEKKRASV
Assay: SEC-MALS; purified SigW/RsiWcyto complex injected into a Superdex200 analytical column with inline DAWN HELEOS MALLS and Optilab rEX refractive index detectors; molecular weight of the complex approximately 31.5 kDa
Conditions: both partners purified

B1: Bacillus subtilis SigW (residues 1-187) (natural protein, B. subtilis 168 strain, UniProt Q45585 1-187, looked up)
chain: MEMMIKKRIKQVKKGDQDAFADIVDIYKDKIYQLCYRMLGNVHEAEDIAQEAFIRAYVNIDSFDINRKFSTWLYRIATNLTIDRIRKKKPDYYLDAEVAGTEGLTMYSQIVADGVLPEDAVVSLELSNTIQQKILKLPDKYRTVIVLKYIDELSLIEIGEILNIPVGTVKTRIHRGREALRKQLRDL
notes: SigW, ECF (group IV) sigma factor of Bacillus subtilis 168, residues 1-187; domains sigmaW2 (residues 3-95) and sigmaW4 (residues 125-187) joined by a disordered loop (96-125); No tag on SigW itself (cloned in MCS2 of pET-DUET1); it is purified through the His-tagged RsiWcyto; A selenomethionine-labelled complex (E. coli B834 (DE3)) was used for phasing only; also called sigma factor SigW; ECF …
stoichiometry N: 1 SigW per RsiWcyto
